Measurements reported in patent US20190077858A1 (KM BIOLOGICS, published 2019).

Assays:
[1] = target: chymase cleavage-type IL-18 (UniProt Q14116); test: cell-based or functional assay
[2] = target: human cell-derived natural IL-18 (human) (UniProt Q14116); test: cell-based or functional assay
[3] = target: T1, human IL-1β (Funakoshi Corp.) (human, UniProt P01584 117-269, biotinylated (Biotin-PEAC5-maleimide or Biotin-AC5 Sulfo-OSu)); test: ELISA on biotinylated cytokine on streptavidin plates
T1 construct: also called biotinylated human IL-1β

[4] = target: T2, rat IL-18 (Acris Antibodies GmbH) (rat, UniProt P97636 37-194, limits assumed, biotinylated (Biotin-PEAC5-maleimide or Biotin-AC5 Sulfo-OSu)); test: as above
T2 construct: also called biotinylated rat IL-18
T2 sequence (looked up): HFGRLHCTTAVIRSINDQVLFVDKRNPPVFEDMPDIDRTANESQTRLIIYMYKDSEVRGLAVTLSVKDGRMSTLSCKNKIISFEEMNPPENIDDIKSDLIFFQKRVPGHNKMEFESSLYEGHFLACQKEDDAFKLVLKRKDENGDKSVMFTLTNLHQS

[5] = target: T3, mouse IL-18 (MBL Medical & Biological Laboratories, Co., Ltd.) (mouse, UniProt P70380 36-192, biotinylated (Biotin-PEAC5-maleimide or Biotin-AC5 Sulfo-OSu)); test: as above
T3 construct: also called biotinylated mouse IL-18
T3 sequence (looked up): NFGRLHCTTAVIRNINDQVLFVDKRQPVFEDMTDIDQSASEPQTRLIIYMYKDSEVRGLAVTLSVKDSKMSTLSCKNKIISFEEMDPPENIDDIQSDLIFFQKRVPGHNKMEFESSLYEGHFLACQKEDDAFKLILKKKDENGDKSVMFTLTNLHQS

[6] = target: T4, human IL-33 (MBL Medical & Biological Laboratories, Co., Ltd.) (human, UniProt O95760 112-270, limits assumed, biotinylated (Biotin-PEAC5-maleimide or Biotin-AC5 Sulfo-OSu)); test: as above
T4 construct: also called biotinylated human IL-33
T4 sequence (looked up): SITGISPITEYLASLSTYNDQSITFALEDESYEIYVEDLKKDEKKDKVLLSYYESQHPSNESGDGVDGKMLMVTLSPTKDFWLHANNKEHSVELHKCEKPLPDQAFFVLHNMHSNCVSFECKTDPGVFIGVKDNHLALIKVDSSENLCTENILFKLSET

[7] = target: T5, human IL-18 (MBL Medical & Biological Laboratories, Co., Ltd.) (human, UniProt Q14116 37-193, biotinylated (Biotin-PEAC5-maleimide or Biotin-AC5 Sulfo-OSu) in the streptavidin plate ELISAs and the panning; not labelled in the receptor binding and KG-1 assays); test: ELISA, biotinylated human IL-18 on streptavidin plate, HRP detection antibody, O.D. 450nm/650nm
T5 construct: Bought protein; also called human interleukin-18; biotinylated human IL-18
T5 sequence (looked up): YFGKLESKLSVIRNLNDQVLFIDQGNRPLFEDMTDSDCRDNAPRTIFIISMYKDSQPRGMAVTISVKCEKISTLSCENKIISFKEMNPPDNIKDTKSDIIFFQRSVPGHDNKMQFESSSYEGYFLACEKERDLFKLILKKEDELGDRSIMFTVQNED
Description: The binding activity of the obtained scFv phages, scFv, and IgG prepared by a standard method (conventional method) was evaluated by ELISA. The biotinylated human IL-18 or the biotinylated mouse IL-18 was diluted to 1 μg/mL with PBS (Sigma-Aldrich Corp.), added at 100 μL/well to Streptavidin plates (Nunc), and incubated at room temperature for 2 hours to immobilize the IL-18. After the immobilization, the plates were washed with PBST, and each obtained scFv phage, scFv, or IgG was added at 100 μL/well to the plates and incubated at 37° C. After 1 hour, the plates were washed with PBST, and a detection antibody anti-M13/HRP (GE Healthcare Japan Corp.), anti-His tag/HRP (Bethyl Laboratories, Inc.), anti-V5 tag/HRP (Bethyl Laboratories, Inc.), anti-mouse IgG/HRP (Invitrogen Corp.), or anti-hFc/HRP (Cosmo Bio Co., Ltd., The binding site) was added at 100 μL/well to the plates and incubated at 37° C. After 1 hour, the plates were washed with PBST, and TMB (Sigma-Aldrich Corp.) was added at 100 μL/well to the plates to develop color. After 30 minutes, the reaction was terminated with 2 N sulfuric acid, and the color values (O.D. 450 nm/650 nm) were measured using a microplate reader (Molecular Devices, Inc.).

[8] = target: T5, human IL-18 (MBL Medical & Biological …); test: cell-based or functional assay
[9] = target: T5, human IL-18 (MBL Medical & Biological …); test: ELISA: biotinylated human IL-18 on streptavidin plate, anti-mouse IgG/HRP
Description: The biotinylated human IL-18 was diluted to 1 μg/mL with PBS (Sigma-Aldrich Corp.), added at 100 μL/well to Streptavidin plates (Nunc), and incubated at room temperature for 1 hour to immobilize the human IL-18. The plates were washed with PB ST, and human IL-18BPa-hFc (R&D Systems, Inc.) diluted to 10 μg/mL with 1% BSA-PBS was added at 100 μL/well to the plates and incubated at 37° C. for 1 hour to form a complex of IL-18 and IL-18BP. The plates were washed with PBST, and 4A6D scFv-mFc was added at 100 μL/well to the plates and incubated at 37° C. After 1 hour, the plates were washed with PBST, and a detection antibody anti-mouse IgG/HRP (Invitrogen Corp.) was added at 100 μL/well to the plates and incubated at 37° C. After 1 hour, the plates were washed with PBST, and TMB (Sigma-Aldrich Corp.) was added at 100 μL/well to the plates to develop color. After 30 minutes, the reaction was terminated with 1 M sulfuric acid, and the color values (O.D. 450 nm/650 nm) were measured using a microplate reader (Molecular Devices, Inc.).

[10] = target: T5, human IL-18 (MBL Medical & Biological …); test: panning of an scFv phage library on biotinylated human IL-18 on streptavidin magnetic beads

Molecule: Negative control antibody
- Amount of IFN-γ produced [1]: 109 pg/mL
- Amount of IFN-γ produced [2]: 134 pg/mL

B1: IgG molecule-type 4A6S (antibody, V domains shown)
VH: EVQLVESGGGLVQPGGSMRLSCTASGFTFSEYAMSWVRQAPGKGLEWVSGISTGGGGTYYADSVEGRFTISRDNSKNTLYLQMNSLRAEDTAVYYCAKPWLSGSRSGDFWGQGTLVTVSS
VL: QSALTQPASVSGSPGQSITISCTGTSSDVGGYNYVSWYQQHPGKAPKLLIYEVSHRPSGVSDRFSGSKSGNTASLTISGLQAEDEADYYCSSFTSSSSLYVFGTGTKLTVL
notes: IgG prepared by a standard method; also called human anti-human IL-18 antibody 4A6S
- binding result [3]: no binding
- binding result [4]: no binding
- binding result [5]: no binding
- binding result [6]: no binding
- EC50 (read off the curve) [7]: ~0.02 µg/mL
- Neutralizing ability (IC50, nM) [8]: 0.013 nM

B2: 4A6D scFv-mFc (Fc fusion)
scFv: EVQLVESGGGLVQPGGSMRLSCTASGFTFDEYAMSWVRQAPGKGLEWVSGISTGGGGTYYADSVEGRFTISRDNSKNTLYLQMNSLRAEDTAVYYCAKPWLSGSRSGDFWGQGTLVTVSSASTGGGGSGGGGSGGGGSQSALTQPASVSGSPGQSITISCTGTSSDVGGYNYVSWYQQHPGKAPKLLIYEVSHRPSGVSDRFSGSKSGNTASLTISGLQAEDEADYYCSSFTSSSSLYVFGTGTKLTVL
notes: not shown: mouse Fc (mFc) and any junction to it
- EC50 (read off the curve) [9]: ~0.008 µg/mL

B3: 4A6D scFv phage (scFv)
scFv: EVQLVESGGGLVQPGGSMRLSCTASGFTFDEYAMSWVRQAPGKGLEWVSGISTGGGGTYYADSVEGRFTISRDNSKNTLYLQMNSLRAEDTAVYYCAKPWLSGSRSGDFWGQGTLVTVSSASTGGGGSGGGGSGGGGSQSALTQPASVSGSPGQSITISCTGTSSDVGGYNYVSWYQQHPGKAPKLLIYEVSHRPSGVSDRFSGSKSGNTASLTISGLQAEDEADYYCSSFTSSSSLYVFGTGTKLTVL
modifications: displayed on phage
notes: the phage coat fusion is not described; not shown: phage coat protein fusion (display partner) and any tags; not described
- binding result [10]: binds

B4: 4A6S scFv phage (scFv)
scFv: EVQLVESGGGLVQPGGSMRLSCTASGFTFSEYAMSWVRQAPGKGLEWVSGISTGGGGTYYADSVEGRFTISRDNSKNTLYLQMNSLRAEDTAVYYCAKPWLSGSRSGDFWGQGTLVTVSSASTGGGGSGGGGSGGGGSQSALTQPASVSGSPGQSITISCTGTSSDVGGYNYVSWYQQHPGKAPKLLIYEVSHRPSGVSDRFSGSKSGNTASLTISGLQAEDEADYYCSSFTSSSSLYVFGTGTKLTVL
modifications: displayed on phage
notes: as for B3
- binding result [10]: binds
